Molecular target: PD-1 (soluble, biotinylated, on sensors or coated on plates) (human) (UniProt Q15116)
Assay: method not stated at the list; Octet curves in FIG. 29

Sequence of PD-1 (soluble, biotinylated, on sensors or coated on plates) (human) (Q15116 25-167 limits assumed): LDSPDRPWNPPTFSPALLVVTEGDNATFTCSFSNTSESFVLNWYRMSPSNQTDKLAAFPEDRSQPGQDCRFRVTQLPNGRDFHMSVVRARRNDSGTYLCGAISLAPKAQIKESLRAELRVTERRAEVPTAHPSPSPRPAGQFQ

B1: PD1#3 scFv-Fc (Fc fusion, part only; not given: Fc, linker, domain order, not shown: another chain or arm of the molecule; a dimerising Fc or GST; small tags and cut ends)
VH: QVQLVQSGAEVKKPGSSVKVSCKTSGYTFNRFGLTWVRQAPGQGLEWMGWTNPYNGNTRYAQKFQGRVTMTTDTSTSTAYMELRSLRSDDTAMYFCARVVAVNGMDVWGQGTTVTVSS
VL: NFMLTQPHSVSESPGKTVTISCTRNSGSIAAYYVQWYQQRPGSSPTTVIYEDNQRPSGVPDRFSGSIDSSSNSASLTISGLKTEDEADYYCQSYDSSNLWVFGGGTKLTVL
B1 showed a Kd of 0.1 nM.
